Assay results taken from publication PMC9688528.

What was measured:
Assay in all cases: target-induced aptamer displacement, RDV release by UV-vis at 247 nm
[1] = test system: alkaline phosphatase (AKP); conditions: 20 U/mL AKP; 3'-SH on aptamer; 5'-COOH on complementary strand; Release assay buffer and temperature not given; Au-DNA stored in PBS (137 mM NaCl, 2.7 mM KCl, 10 mM Na2HPO4, 1.75 mM KH2PO4, 50 mM MgCl2, pH 7.4)
[2] = test system: cytochrome c; conditions: 2 uM cytochrome c; 3'-SH on aptamer; 5'-COOH on complementary strand; Release assay buffer and temperature not given; Au-DNA stored in PBS (137 mM NaCl, 2.7 mM KCl, 10 mM Na2HPO4, 1.75 mM KH2PO4, 50 mM MgCl2, pH 7.4)
[3] = test system: fibrinogen (FIB); conditions: 2 uM FIB; 3'-SH on aptamer; 5'-COOH on complementary strand; Release assay buffer and temperature not given; Au-DNA stored in PBS (137 mM NaCl, 2.7 mM KCl, 10 mM Na2HPO4, 1.75 mM KH2PO4, 50 mM MgCl2, pH 7.4)
[4] = test system: hemoglobin (HGB); conditions: 2 uM HGB; 3'-SH on aptamer; 5'-COOH on complementary strand; Release assay buffer and temperature not given; Au-DNA stored in PBS (137 mM NaCl, 2.7 mM KCl, 10 mM Na2HPO4, 1.75 mM KH2PO4, 50 mM MgCl2, pH 7.4)
[5] = test system: immunoglobulin G (IgG); conditions: 2 uM IgG; 3'-SH on aptamer; 5'-COOH on complementary strand; Release assay buffer and temperature not given; Au-DNA stored in PBS (137 mM NaCl, 2.7 mM KCl, 10 mM Na2HPO4, 1.75 mM KH2PO4, 50 mM MgCl2, pH 7.4)

GCTGGATGTCGCTTACGACAATATTCCTTAGGGGCACCGCTACATTGACACATCCAGC / TTGTACTGGCTCATAGCTGGATGTGTCAATGTAGCGGTGCCCCTAAGGAATATTGTCGTAAGCG
binding signal (% of N protein signal) [1]: 11.6
binding signal (% of N protein signal) [2]: 9.13
binding signal (% of N protein signal) [3]: 4.56
binding signal (% of N protein signal) [4]: 6.22
binding signal (% of N protein signal) [5]: 7.05
